The values below come from article PMC10865538 (2024).

B1: sdAb42 (VHH)
VHH: EVQLVESGGGLVQPGGSLRLSCAASGNTSTRHPMSWVRQAPGKGLELVASIGRGEITYYADSVKGRFTISRDNSKNTLYLQMNSLRAEDTAVYYCAVDAVFGGRHSHWGQGTLVTVSS
B2: sdAb38 (VHH)
VHH: EVQLVESGGGLVQPGGSLRLSCAASGNTSTRHPMSWVRQAPGKGLELVASIGRGEITYYADSVKGRFTISRDNSKNTLYLQMNSLRAEDTAVYYCAVCLRSVFVNCHNFAYWGQGTLVTVSS
B3: sdAb12 (VHH)
VHH: EVQLVESGGGLVQPGGSLRLSCAASGNTFPARTMSWVRQAPGKGLELVASIGRGEITYYADSVKGRFTISRDNSKNTLYLQMNSLRAEDTAVYYCAAPAHGSWMSRRPHIYWGQGTLVTVSS
B4: sdAb10 (VHH)
VHH: EVQLVESGGGLVQPGGSLRLSCAASGNTFPARTMSWVRQAPGKGLELVASIGPGRSTIYADSVKGRFTISRDNSKNTLYLQMNSLRAEDTAVYYCAVAYTSGLALRGSFSYWGQGTLVTVSS
B5: sdAb39 (VHH)
VHH: EVQLVESGGGLVQPGGSLRLSCAASGNTSTRHPMSWVRQAPGKGLELVASIGRGEITYYADSVKGRFTISRDNSKNTLYLQMNSLRAEDTAVYYCAAFVDFLSRHNSRRPYPHGYWGQGTLVTVSS

The target in this experiment is SARS-CoV-2 S protein receptor-binding domain (R319-F541) (SARS-CoV-2, UniProt P0DTC2 319-541). As to the kind of experiment: ELISA.
Broadly, the EC50 is the concentration that produces a half-maximal response. B1 came in with an EC50 of 2 nM.

Consider B2, for which the EC50 amounted to 46.1 nM.

In the case of B3, the EC50 was 60.1 nM.

B4 displayed an EC50 of 22.2 nM.

B5 gave an EC50 of 4.3 nM.
